Biological target: the molecule itself
Assay: cryo-EM structure

B1: human LRRC8A (leucine-rich repeat-containing 8A) wild-type protein (natural protein)
chain: MIPVTELRYFADTQPAYRILKPWWDVFTDYISIVMLMIAVFGGTLQVTQDKMICLPCKWVTKDSCNDSFRGWAAPGPEPTYPNSTILPTPDTGPTGIKYDLDRHQYNYVDAVCYENRLHWFAKYFPYLVLLHTLIFLACSNFWFKFPRTSSKLEHFVSILLKCFDSPWTTRALSETVVEESDPKPAFSKMNGSMDKKSSTVSEDVEATVPMLQRTKSRIEQGIVDRSETGVLDKKEGEQAKALFEKVKKFRTHVEEGDIVYRLYMRQTIIKVIKFILIICYTVYYVHNIKFDVDCTVDIESLTGYRTYRCAHPLATLFKILASFYISLVIFYGLICMYTLWWMLRRSLKKYSFESIREESSYSDIPDVKNDFAFMLHLIDQYDPLYSKRFAVFLSEVSENKLRQLNLNNEWTLDKLRQRLTKNAQDKLELHLFMLSGIPDTVFDLVELEVLKLELIPDVTIPPSIAQLTGLKELWLYHTAAKIEAPALAFLRENLRALHIKFTDIKEIPLWIYSLKTLEELHLTGNLSAENNRYIVIDGLRELKRLKVLRLKSNLSKLPQVVTDVGVHLQKLSINNEGTKLIVLNSLKKMANLTELELIRCDLERIPHSIFSLHNLQEIDLKDNNLKTIEEIISFQHLHRLTCLKLWYNHIAYIPIQIGNLTNLERLYLNRNKIEKIPTQLFYCRKLRYLDLSHNNLTFLPADIGLLQNLQNLAITANRIETLPPELFQCRKLRALHLGNNVLQSLPSRVGELTNLTQIELRGNRLECLPVELGECPLLKRSGLVVEEDLFNTLPPEVKERLWRADKEQA
  stoichiometry N: 6

Source: article doi:10.1101/331207 (bioRxiv, 2018)
